Assay results as given in PMC11446282.

Test system: B55α interactors
Experiment: MS analysis of B55α WT, V228A, I284A, S287A and D340A immunopurifications
Assay type: binding, human
Settings: log2 ratio of interactor abundance, 4 replicates each, normalised to bait B55α; for log2_ratio_D340_WT: B55α D340A vs WT immunopurification; for log2_ratio I284_WT: B55α I284A vs WT immunopurification; for log2_ratio S287_WT: B55α S287A vs WT immunopurification; for log2_ratio V228_WT: B55α V228A vs WT immunopurification
Protocol: Standard cloning techniques were used throughout. Point mutations were introduced by whole plasmid polymerase chain reaction (PCR). All constructs were fully sequenced. Synthetic DNA was purchased from GeneArt, Life Technologies and cloned into pcDNA5/FRT/TO (Invitrogen) expression vector containing YFP, resulting in the indicated YFP fusion proteins. These constructs were transiently transfected into HeLa cells 24 hours before harvesting cells. Cells were lysed in lysis buffer [50 mM tris-HCl (pH 7.5), 50 mM NaCl, 1 mM EDTA, 1 mM […], and 0.1% NP-40]. Complexes were immunoprecipitated at 4°C in lysis buffer with green fluorescent protein (GFP)–Trap (ChromoTek) and washed in lysis buffer. Precipitated protein complexes were washed three times in lysis buffer, eluted in 2× SDS sample buffer, and subjected to Western blotting or MS as indicated.
Pull-downs were analyzed on a Q-Exactive Plus quadrupole or Fusion Orbitrap Lumos mass spectrometer (Thermo Fisher Scientific) equipped with Easy-nLC 1000 or […] (Thermo Fisher Scientific) and nanospray source (Thermo Fisher Scientific).
Static modifications included carbamidomethylcysteine, and variable modifications included oxidized methionine and STY phosphorylation. Searches were filtered using orthogonal measures including mass measurement accuracy (±3 parts per million), Xcorr for charges from +2 to +4, and dCn targeting a <1% false discovery rate at the peptide level. Quantification of LC-MS/MS spectra was performed using MassChroQ ([57]) and the iBAQ method ([58]). All data were analyzed using R 4.3.0. Missing values were imputed from a normal distribution. […] In each dataset, the abundance of the protein of interest was normalized to be equal across all samples. Statistical analyses were done using a two-tailed Student’s t test.

B1: TBCD4_HUMAN (protein, UniProt O60343 1-1298, looked up)
TBC1 domain family member 4: MEPPSCIQDEPFPHPLEPEPGVSAQPGPGKPSDKRFRLWYVGGSCLDHRTTLPMLPWLMAEIRRRSQKPEAGGCGAPAAREVILVLSAPFLRCVPAPGAGASGGTSPSATQPNPAVFIFEHKAQHISRFIHNSHDLTYFAYLIKAQPDDPESQMACHVFRATDPSQVPDVISSIRQLSKAAMKEDAKPSKDNEDAFYNSQKFEVLYCGKVTVTHKKAPSSLIDDCMEKFSLHEQQRLKIQGEQRGPDPGEDLADLEVVVPGSPGDCLPEEADGTDTHLGLPAGASQPALTSSRVCFPERILEDSGFDEQQEFRSRCSSVTGVQRRVHEGSQKSQPRRRHASAPSHVQPSDSEKNRTMLFQVGRFEINLISPDTKSVVLEKNFKDISSCSQGIKHVDHFGFICRESPEPGLSQYICYVFQCASESLVDEVMLTLKQAFSTAAALQSAKTQIKLCEACPMHSLHKLCERIEGLYPPRAKLVIQRHLSSLTDNEQADIFERVQKMKPVSDQEENELVILHLRQLCEAKQKTHVHIGEGPSTISNSTIPENATSSGRFKLDILKNKAKRSLTSSLENIFSRGANRMRGRLGSVDSFERSNSLASEKDYSPGDSPPGTPPASPPSSAWQTFPEEDSDSPQFRRRAHTFSHPPSSTKRKLNLQDGRAQGVRSPLLRQSSSEQCSNLSSVRRMYKESNSSSSLPSLHTSFSAPSFTAPSFLKSFYQNSGRLSPQYENEIRQDTASESSDGEGRKRTSSTCSNESLSVGGTSVTPRRISWRQRIFLRVASPMNKSPSAMQQQDGLDRNELLPLSPLSPTMEEEPLVVFLSGEDDPEKIEERKKSKELRSLWRKAIHQQILLLRMEKENQKLEASRDELQSRKVKLDYEEVGACQKEVLITWDKKLLNCRAKIRCDMEDIHTLLKEGVPKSRRGEIWQFLALQYRLRHRLPNKQQPPDISYKELLKQLTAQQHAILVDLGRTFPTHPYFSVQLGPGQLSLFNLLKAYSLLDKEVGYCQGISFVAGVLLLHMSEEQAFEMLKFLMYDLGFRKQYRPDMMSLQIQMYQLSRLLHDYHRDLYNHLEENEISPSLYAAPWFLTLFASQFSLGFVARVFDIIFLQGTEVIFKVALSLLSSQETLIMECESFENIVEFLKNTLPDMNTSEMEKIITQVFEMDISKQLHAYEVEYHVLQDELQESSYSCEDSETLEKLERANSQLKRQNMDLLEKLQVAHTKIQALESNLENLLTRETKMKSLIRTLEQEKMAYQKTVEQLRKLLPADALVNCDLLLRDLNCNPNNKAKIGNKP
Q: For B1, which log2_ratio_D340_WT is on record?
A: -3.17

Q: And the “log2_ratio I284_WT” value?
A: -2.61

Q: And the “log2_ratio S287_WT” value?
A: -1.57

Q: And the “log2_ratio V228_WT” value?
A: -1.50

B2: BAG2_HUMAN (protein, UniProt O95816 2-211, looked up)
BAG family molecular …: AQAKINAKANEGRFCRSSSMADRSSRLLESLDQLELRVEALREAATAVEQEKEILLEMIHSIQNSQDMRQISDGEREELNLTANRLMGRTLTVEVSVETIRNPQQQESLKHATRIIDEVVNKFLDDLGNAKSHLMSLYSACSSEVPHGPVDQKFQSIVIGCALEDQKKIKRRLETLLRNIENSDKAIKLLEHSKGAGSKTLQQNAESRFN
Q: With B2 as the molecule, how does the log2_ratio_D340_WT read?
A: -0.69

Q: And the “log2_ratio I284_WT” value?
A: -0.54

Q: And the “log2_ratio S287_WT” value?
A: 0.19

Q: And the “log2_ratio V228_WT” value?
A: -0.43

B3: OFD1_HUMAN (protein, UniProt O75665 1-1012, looked up)
Centriole and centriolar …: MMAQSNMFTVADVLSQDELRKKLYQTFKDRGILDTLKTQLRNQLIHELMHPVLSGELQPRSISVEGSSLLIGASNSLVADHLQRCGYEYSLSVFFPESGLAKEKVFTMQDLLQLIKINPTSSLYKSLVSGSDKENQKGFLMHFLKELAEYHQAKESCNMETQTSSTFNRDSLAEKLQLIDDQFADAYPQRIKFESLEIKLNEYKREIEEQLRAEMCQKLKFFKDTEIAKIKMEAKKKYEKELTMFQNDFEKACQAKSEALVLREKSTLERIHKHQEIETKEIYAQRQLLLKDMDLLRGREAELKQRVEAFELNQKLQEEKHKSITEALRRQEQNIKSFEETYDRKLKNELLKYQLELKDDYIIRTNRLIEDERKNKEKAVHLQEELIAINSKKEELNQSVNRVKELELELESVKAQSLAITKQNHMLNEKVKEMSDYSLLKEEKLELLAQNKLLKQQLEESRNENLRLLNRLAQPAPELAVFQKELRKAEKAIVVEHEEFESCRQALHKQLQDEIEHSAQLKAQILGYKASVKSLTTQVADLKLQLKQTQTALENEVYCNPKQSVIDRSVNGLINGNVVPCNGEISGDFLNNPFKQENVLARMVASRITNYPTAWVEGSSPDSDLEFVANTKARVKELQQEAERLEKAFRSYHRRVIKNSAKSPLAAKSPPSLHLLEAFKNITSSSPERHIFGEDRVVSEQPQVGTLEERNDVVEALTGSAASRLRGGTSSRRLSSTPLPKAKRSLESEMYLEGLGRSHIASPSPCPDRMPLPSPTESRHSLSIPPVSSPPEQKVGLYRRQTELQDKSEFSDVDKLAFKDNEEFESSFESAGNMPRQLEMGGLSPAGDMSHVDAAAAAVPLSYQHPSVDQKQIEEQKEEEKIREQQVKERRQREERRQSNLQEVLERERRELEKLYQERKMIEESLKIKIKKELEMENELEMSNQEIKDKSAHSENPLEKYMKIIQQEQDQESADKSSKKMVQEGSLVDTLQSSDKVESLTGFSHEELDDSW
Q: B3 was tested. Which log2_ratio_D340_WT did it give?
A: 2.04

Q: And the “log2_ratio I284_WT” value?
A: 1.52

Q: What about the “log2_ratio S287_WT” value of the same molecule?
A: 0.73

Q: What about the “log2_ratio V228_WT” value of the same molecule?
A: -2.22

B4: PDE8B_HUMAN (protein, UniProt O95263 1-885, looked up)
High affinity cAMP-specific …: MGCAPSIHVSQSGVIYCRDSDESSSPRQTTSVSQGPAAPLPGLFVQTDAADAIPPSRASGPPSVARVRRARTELGSGSSAGSAAPAATTSRGRRRHCCSSAEAETQTCYTSVKQVSSAEVRIGPMRLTQDPIQVLLIFAKEDSQSDGFWWACDRAGYRCNIARTPESALECFLDKHHEIIVIDHRQTQNFDAEAVCRSIRATNPSEHTVILAVVSRVSDDHEEASVLPLLHAGFNRRFMENSSIIACYNELIQIEHGEVRSQFKLRACNSVFTALDHCHEAIEITSDDHVIQYVNPAFERMMGYHKGELLGKELADLPKSDKNRADLLDTINTCIKKGKEWQGVYYARRKSGDSIQQHVKITPVIGQGGKIRHFVSLKKLCCTTDNNKQIHKIHRDSGDNSQTEPHSFRYKNRRKESIDVKSISSRGSDAPSLQNRRYPSMARIHSMTIEAPITKVINIINAAQENSPVTVAEALDRVLEILRTTELYSPQLGTKDEDPHTSDLVGGLMTDGLRRLSGNEYVFTKNVHQSHSHLAMPITINDVPPCISQLLDNEESWDFNIFELEAITHKRPLVYLGLKVFSRFGVCEFLNCSETTLRAWFQVIEANYHSSNAYHNSTHAADVLHATAFFLGKERVKGSLDQLDEVAALIAATVHDVDHPGRTNSFLCNAGSELAVLYNDTAVLESHHTALAFQLTVKDTKCNIFKNIDRNHYRTLRQAIIDMVLATEMTKHFEHVNKFVNSINKPMAAEIEGSDCECNPAGKNFPENQILIKRMMIKCADVANPCRPLDLCIEWAGRISEEYFAQTDEEKRQGLPVVMPVFDRNTCSIPKSQISFIDYFITDMFDAWDAFAHLPALMQHLADNYKHWKTLDDLKCKSLRLPSDS
Q: For B4, which log2_ratio_D340_WT is on record?
A: 3.81

Q: What about the “log2_ratio I284_WT” value of the same molecule?
A: 0.83

Q: What about the “log2_ratio S287_WT” value of the same molecule?
A: 4.46

Q: And the “log2_ratio V228_WT” value?
A: 5.00
